In patent US20030065144A1:

Target: UNC-49B GABA receptor subunit (UNC-49B.1 isoform) (C. elegans)
Assay: cell-based or functional assay

| Substance | GABA concentration required to produce half-maximal channel activity (EC50), Xenopus oocytes injected with UNC-49B.1 mRNA, two-electrode voltage clamp | single main conductance state, single channel recordings in HEK-293 cells expressing UNC-49B alone | EC50 value for GABA, Xenopus oocytes injected with equal amounts of UNC-49B and UNC-49C RNA, two-electrode voltage clamp | single main conductance state, single channel recordings in HEK-293 cells transfected with UNC-49B and UNC-49C |
| --- | --- | --- | --- | --- |
| UNC-49B GABA receptor subunit (UNC-49B.1 isoform) | 43.7 µM | 37.5 pS |  |  |
| UNC-49C GABA receptor subunit |  |  | 108 µM | 30.9 pS |
